Laboratory results taken from US20260098096A1.

Target: Human CCR8 (human) (UniProt P51685)
Assay: cell-based or functional assay

Sequence of Human CCR8 (human) (P51685 whole entry): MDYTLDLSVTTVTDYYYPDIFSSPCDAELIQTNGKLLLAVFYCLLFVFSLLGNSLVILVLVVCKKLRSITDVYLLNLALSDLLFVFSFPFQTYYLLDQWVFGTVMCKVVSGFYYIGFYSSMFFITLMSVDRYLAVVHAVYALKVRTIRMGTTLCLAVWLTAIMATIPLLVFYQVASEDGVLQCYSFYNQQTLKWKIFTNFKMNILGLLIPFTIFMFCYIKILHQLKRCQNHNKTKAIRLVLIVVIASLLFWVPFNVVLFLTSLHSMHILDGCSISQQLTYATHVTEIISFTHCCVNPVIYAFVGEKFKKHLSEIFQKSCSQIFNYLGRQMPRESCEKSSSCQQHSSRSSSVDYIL

In the case of “human CCL1 (from UniProt P22362 24-96) (ligand)”, the EC90 of chemotaxis of hCCR8 L1.2 cells is reported as 5.84 nM.
